B1: library; numbered along this chain (parent)
chain: MATDAALRRLLRLHRTEIAVAVDSAFPLLHALADHDVVPEDKFQETLHLKEKEGCPQAFHALLSWLLTQDSTAILDFWRVLFKDYNLERYGRLQPILDSFPKDVDLSQPRKGRKPPAVPKALVPPPRLPTKRKASEEARAAAPAALTPRGTASPGSQLKAKPPKKPESSAEQQRLPLGNGIQTMSASVQRAVAMSSGDVPGARGAVEGILIQQVFESGGSKKCIQVGGEFYTPSKFEDSGSGKNKARSSSGPKPLVRAKGAQGAAPGGGEARLGQQGSVPAPLALPSDPQLHQKNEDECAVCRDGGELICCDGCPRAFHLACLSPPLREIPSGTWRCSSCLQATVQEVQPRAEEPRPQEPPVETPLPPGLRSAGEEVRGPPGEPLAGMDTTLVYKHLPAPPSAAPLPGLDSSALHPLLCVGPEGQQNLAPGARCGVCGDGTDVLRCTHCAAAFHWRCHFPAGTSRPGTGLRCRSCSGDVTPAPVEGVLAPSPARLAPGPAKDDTASHEPALHRDDLESLLSEHTFDGILQWAIQSMARPAAPFPS

Variants of: B1
Assay: AIRE transcriptional activation functional score (insulin promoter-GFP; nonsense median 0, synonymous median 1) (normalised score); higher = higher AIRE activity (more reporter activation)
Settings: with insulin promoter-GFP reporter in HEK293
Method in brief: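 Integration of codon-optimized AIRE NNN-codon libraries (three regions) by Bxb1 recombinase was done in Flp-In T-REx HEK293 landing-pad cells containing an insulin core promoter-GFP reporter. Tile-sequencing covered the top 10% GFP cells and the unselected integrants, drawn from mCherry+, BFP− cells sorted at day 7 and grown 7 days. Functional score means the enrichment of a variant in select versus non-select, minus that of wild type. Variants with at least 10 counts per million in non-select were rescaled to nonsense median 0 and synonymous median 1, and the biological replicates were averaged.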

AIRE transcriptional activation functional score, by site and new letter:
R356: F 1.15; W 0.964; K 0.935; T 0.752; L 0.928; E 1.09; Y 1.03; S 0.974; Q 0.912; N 1.01; C 1.05; P 0.873; A 0.824; M 1.16; H 0.935; I 1.03; V 0.975; G 1.06; D 1.05
R351: P 1.02; H 0.73; G 1.02; Q 1.44; V 0.812; W 0.833; I 0.573; M 1.07; D 0.673; S 1.01; N 1.56; T 0.615; E 0.835; F 1.16; C 1.19; A 1.34; L 0.985; K 0.457; Y 0.693
L366: W 1.29; K 1.37; I 0.894; T 1.17; M 0.554; R 1.1; H 1.21; F 1.02; S 0.837; C 0.406; E 1.32; N 0.777; Y 0.821; G 0.607; A 0.656; V 0.996; P 1.13; Q 0.884; D 0.846
P357: L 1.2; T 1.1; C 1.23; H 0.925; G 0.884; K 0.713; E 1.05; Q 1.06; Y 1.34; V 0.974; W 1.17; M 1.29; N 1.32; I 1.11; D 0.863; S 0.935; F 1.27; R 1.07; A 1.01
P360: K 0.715; W 1.38; F 1.2; M 1.19; T 0.775; S 0.994; H 1.1; D 0.792; Q 0.786; E 1.22; G 1.16; L 1.06; V 0.911; Y 1.2; N 1; A 0.888; I 1.13; C 1.08; R 1.02
P350: Q 0.912; F 1.25; E 1.04; S 0.947; V 1.01; C 0.761; I 1.14; D 1.09; K 0.93; H 1.47; G 1.14; R 1.18; W 1.02; M 1.11; N 1.37; T 0.866; L 1.17; Y 0.767; A 1.13
E363: H 1.19; D 0.917; V 1.14; M 1.7; F 1.34; W 1.59; Q 0.775; R 1.21; L 1.29; P 0.843; C 1.27; K 1.09; G 1.02; T 1.29; N 1.09; A 1.1; S 1.04; I 1.02; Y 1.28
Q358: V 1.07; H 1.12; P 1.05; C 0.97; T 0.929; A 0.941; R 1.17; E 1.19; D 0.761; K 1.02; W 1.27; F 1.16; I 1.1; S 1.04; M 1.12; L 1.14; N 1.18; G 1.34; Y 1.04
P361: S 1.21; H 1.14; Y 1.13; V 1.21; I 1.09; L 1.07; N 0.778; Q 1.18; C 1.27; G 1.21; A 1.01; W 1.29; T 1.12; R 0.983; F 1.18; D 1.15; E 0.976; K 1.12; M 1.3
P355: H 1.08; S 0.93; Y 1.49; I 1.01; C 1.05; G 1.06; R 1.04; T 1.09; W 1.32; Q 1.24; L 1.11; K 1.2; A 0.981; V 1; M 0.914; E 0.969; D 1.13; F 1; N 1.11
E354: D 1.22; N 0.818; A 0.949; L 1.05; V 1.08; R 1.14; G 1.13; W 1.16; I 1.13; M 1.47; H 1.1; P 0.835; K 0.669; Q 0.948; T 0.99; S 0.901; Y 1.38; F 1.33; C 1.16
T364: K 0.737; L 1.22; V 0.952; Y 1.11; H 1.07; S 0.643; P 0.694; R 0.983; I 0.829; A 0.985; E 0.981; Q 0.914; G 0.32; W 1.73; D 0.191; N 0.588; F 0.115; M 1.64
A352: M 1.13; S 1; G 0.813; P 0.925; I 1.08; Y 0.899; W 1.31; L 1.06; E 0.933; K 0.997; H 0.902; R 0.916; Q 0.697; D 1.08; F 1.38; T 1.32; V 0.882; N 1.01; C 1.1
V362: G 1.02; M -0.739; S 1.07; A 1.13; D 1.3; Y 1.31; R 1.14; W 1.24; C 0.914; F 0.981; L 0.999; I 1.32; H 0.807; K 1.11; E 1.07; Q 1.16; T 0.915; P 0.988; N 1.3
P365: W 1.45; M 1.49; H 0.594; F 1.36; R 1.28; S 1.14; C 1.05; N 0.389; K 1.17; T 0.843; Q 0.92; E 1.33; Y 1.75; D 0.214; L 1.07; A 1.05; I 0.733; V 0.952; G 0.47
P367: F 1.13; I 1.46; C 1.47; G 0.153; A 0.781; D 0.924; E 1.46
Q349: V 1.13; W 1.55; Y 1.08; T 1.12; S 1.26
E359: R 1.02; H 0.97; P 0.935; A 0.785; V 1.08; K 0.82; I 1.14; T 0.92; S 1.27; G 1.02; M 1.08; C 1.11; F 1.18; Q 0.92; W 1.24; D 0.954; N 0.928; L 1.01; Y 1.11
E353: I 1.13; T 1.19; H 0.837; K 1.17; V 1.15; P 1.12; C 1.2; S 1.14; Y 1.42; W 1.17; F 1.25; N 0.963; G 0.959; Q 1.18; D 0.963; R 1.14; M 1.19; L 1.18; A 1.07

— the supplement of paper PMC12667976
